Series [1] concerns TLR1 TMD (functional ToxR chimera). Kind of series: Dominant-negative (heterotypic) ToxR assay, TLR1 as dominant phenotype. Conditions: Miller units normalized to poly-Leu* = 1 and corrected for expression, lower = stronger interaction, N in table. The series is classed as cell-based. The text has this: (§1) Next, we investigated heterotypic interactions of the TLRs. We specifically studied TLR2, TLR1, and TLR6 because they are cell surface expressed receptors known to form functional heterodimers. To determine the ability of these three cell surface TLRs to have heterotypic interactions within its family, we studied the ability of the TLR1, TLR2, and TLR6 TMDs to interact with the TLR receptors also expressed at the cell surface; namely, TLR1, TLR2, TLR4, TLR5, TLR6, and TLR10. We monitored these interactions using a dominant-negative ToxR assay (Fig. S1B) which works by having a second TMD expressed with a non-functional ToxR* intracellular domain. This ToxR* domain is incapable of binding the ctx promoter making any interactions with this second expressed TMD unable to produce the reporter enzyme. As such, any interaction between the functional ToxR and non-functional ToxR* TMDs will result in a reduction in signal output.
(§2) Figure 3 Cell- Surface Toll-like Recptor Heterotypic Interactions. (A) A dominant-negative ToxR assay was used to study heterotypic interactions of the cell-surface TLRs. Two TLR TMDs were encoded in the FHK12 E.coli reporter strain, one with a functional ToxR domain (dominant phenotype) and one with a nonfunctional ToxR* domain (negative phenotype). Interaction between the two different TMDs leads to a reduction in signal from that seen for homotypic interactions. The TMDs for GpA, TLR1, TLR2, and TLR6 were used with the functional ToxR domain while TMDs for poly-Leucine, TMD5, integrin αIIb, TLR1, TLR2, TLR4, TLR5, TLR6, and TLR10 were used with the nonfunctional ToxR* domain. Interactions were most prominent for the TLRs known to have heterotypic interactions – TLR2-TLR1 and TLR2-TLR6. […] We also saw interaction with the same TMD further validating the homotypic interactions. […] Each dominant phenotype was done in 3 technical replicates with each negative phenotype and >6 measurements made for each replicate. Error bars depict the standard error of the mean (n- Tables S3, S5, S7, S9). Western blots staining for MBP were performed to monitor expression levels of the constructs with the upper band being functional ToxR chimeras and the lower band being nonfunctional ToxR* chimeras – (B) GpA, (C) TLR1, (D) TLR2, and (E) TLR6. Significant differences for the same dominant phenotype were determined by use of the Tukey-Kramer test.
(§3) For heterotypic interactions one plasmid containing a functional ToxR domain (200 ng) and a second plasmid containing a non-functional ToxR* domain (200 ng) were co-transformed into chemically competent FHK12 E. coli (400 µL) by incubating on ice for 30 min, heat shock at 42°C for 90 s, incubation on ice for 2 min, and addition of SOC media (1600 µL) followed by incubation with shaking for 1 h at 37°C. This transformation mixture (50 µL) was then used to spread LB-agar plates containing cholaramphenicol (30 µg/mL), kanamycin (33 µg/mL), and ampicillin (100 µg/mL) and grown overnight at 37°C. Single colonies were selected from the plates and grown in 5 mL LB media containing cholaramphenicol (30 µg/mL), kanamycin (33 µg/mL), ampicillin (100 µg/mL), and arabinose (0.0025%) overnight (16–20 h) with shaking at 37°C. Analysis of activity was monitored as described in homotypic ToxR assays. Western blotting was done in the same manner as the homotypic ToxR assay with one band appearing for the functional ToxR construct and a second band for the nonfunctional ToxR* construct. Data were normalized to poly-Leu* Miller Units and corrected for varying protein expression levels using ImageJ (NIH) as previously reported.

Series [2] has as its system TLR6 TMD (functional ToxR chimera). Kind of series: Dominant-negative (heterotypic) ToxR assay, TLR6 as dominant phenotype. Conditions: Miller units normalized to poly-Leu* = 1 and corrected for expression, lower = stronger interaction, N in table. The series is classed as cell-based, E. coli.
Text: as §1, §2, §3

Series [3] is described as follows: Circular dichroism, helical content by CDNN. Conditions: CD, CDNN analysis; 5-10 µM peptide, 10 mM C14-betaine micelles, 20 mM HEPES pH 7.4, 25°C, average of 9 scans. In kind it is physicochemical. The protocol:
Figure 4 Circular Dichroism Spectra of TLR1, TLR2, and TLR6 Synthetic TMD Peptides. Far-UV spectra of the synthetic TMD peptides at concentrations ranging from 5–10 µM in the presence of 10 mM C14-betaine detergent micelles. Spectra were collected at 25°C with a step size of 1 nm and are the average of 9 scans. All peptides had helical content >99% (Table S11) as determined using CDNN [63].
CD measurements were performed on a ChirascanPlus spectrometer (Applied Photophysics) using a 1.0 mm path length quartz cuvette. Peptides and C14-Betaine (3-(N,N-Dimethylmyristylammonio)propanesulfonate: Sigma) were co-dissolved in 2,2,2-trifluoroethanol. The organic solvent was removed by drying to a thin film using N2 and further dried overnight under reduced pressure to remove all traces of TFE. Samples were resusupended in a 20 mM HEPES buffer, pH 7.4, yielding a final C14-Betaine concentration of 10 mM. Peptide concentrations were determined using Beer-Lambert law with coumarin absorbance at 400 nm using ε400 of 39,300 M^−1 cm^−1 [62] and FITC absorbance at 495 nm using ε495 of 68,000 M^−1 cm^−1 (Invitrogen). Peptides were prepared such that final concentrations were in the 5–10 µM range. All CD spectra were measured at 25°C with a step size of 1 nm and are reported as the average of 9 scans. Data were not collected below 200 nm due to the high voltage and background noise from the C14-Betaine buffer. Helical content was determined using CDNN [63].

No end group written: not given here.

For the substance “TLR2*: TLR2 TMD chimera with nonfunctional ToxR* domain (negative phenotype) (GNRASALVSGMCCALFLLILLTGVLCGSLIN; cysteine pairing not given here; also: fused to non-functional ToxR* (S87H) and maltose binding protein, ends not given here)”, the “Mean TLR1-TMD* heterotypic interaction (ToxR signal)” value in series [1] was found to be 0.3243. Also, the “Mean TLR6-TMD* heterotypic interaction (ToxR signal)” value in series [2] is on record as 0.2802. Besides, in series [3], the “Helix content, 200-260 nm” value was 99.80%; the “Helix content, 205-260 nm” value was 99.90%; the “Helix content, 210-260 nm” value was found to be 99.90%.
On to “TLR1*: TLR1 TMD chimera with nonfunctional ToxR* domain (negative phenotype) (GNRASITLLIVTIVATMLVLAVTVTSLCSYLGSLIN; also: fused to non-functional ToxR* (S87H) and maltose binding protein, ends not given here)”, for which, in series [1], the “Mean TLR1-TMD* heterotypic interaction (ToxR signal)” value worked out at 0.3722. Besides, the “Mean TLR6-TMD* heterotypic interaction (ToxR signal)” value in series [2] stood at 0.3316. Also, in series [3], the “Helix content, 200-260 nm” value was 99.70%; the “Helix content, 205-260 nm” value amounted to 99.90%; the “Helix content, 210-260 nm” value was found to be 99.90%.
As for “TLR6*: TLR6 TMD chimera with nonfunctional ToxR* domain (negative phenotype) (GNRASITLLIVTIGATMLVLAVTVTSLCIYLGSLIN; also: fused to non-functional ToxR* (S87H) and maltose binding protein, ends not given here)”, the “Mean TLR1-TMD* heterotypic interaction (ToxR signal)” value in series [1] was found to be 0.3349. The “Mean TLR6-TMD* heterotypic interaction (ToxR signal)” value in series [2] is listed as 0.2564. Further, in series [3], the “Helix content, 200-260 nm” value amounted to 99.90%; the “Helix content, 205-260 nm” value was 100.00%; the “Helix content, 210-260 nm” value came to 100.00%.

Source of the values: PMC3498381, “Isolated Toll-like Receptor Transmembrane Domains Are Capable of Oligomerization” (PLoS ONE, 2012).
